Data taken from the supplement of paper PMC9112550, “Optimization of the antimicrobial peptide Bac7 by deep mutational scanning” (BMC Biology, 2022).

Tested on: Escherichia coli TOP10
Experiment: shrunken log2 fold change of peptide-encoding DNA abundance (4.5 h post-induction vs induction); higher = less antimicrobial activity (less host growth inhibition)
Details: time post-induction: 4.5 h; library: site-saturation at positions 5, 18, 19, 20
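Also: peptides expressed intracellularly from a pBAD plasmid library in pooled LB shake-flask culture, induced with 0.3% L-arabinose, DNA abundance read by NGS, three biological replicates, DESeq2 with apeglm shrinkage.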

Row | Sequence | shrunken log2 fold change
1 | RRIRNRPPRLPRPRPRPHYLPRP | -0.218
2 | RRIRERPPRLPRPRPRPSTYPRP | -0.263
3 | RRIRFRPPRLPRPRPRPETRPRP | 0.159
4 | RRIRDRPPRLPRPRPRPYVGPRP | -0.0122
5 | RRIRKRPPRLPRPRPRPFVGPRP | -0.0257
6 | RRIRDRPPRLPRPRPRPIMCPRP | -0.0425
7 | RRIRWRPPRLPRPRPRPFTQPRP | -0.0585
8 | RRIRSRPPRLPRPRPRPAGLPRP | -0.0231
9 | RRIRTRPPRLPRPRPRPHMYPRP | -0.275
10 | RRIRQRPPRLPRPRPRPQFKPRP | -0.0321
11 | RRIRFRPPRLPRPRPRPTQNPRP | 0.541
12 | RRIRSRPPRLPRPRPRPSKWPRP | -0.285
13 | RRIRQRPPRLPRPRPRPPSYPRP | -0.0228
14 | RRIRPRPPRLPRPRPRPVYHPRP | -0.388
15 | RRIRSRPPRLPRPRPRPNCEPRP | -0.133
16 | RRIRYRPPRLPRPRPRPLFRPRP | -0.66
17 | RRIRSRPPRLPRPRPRPCTLPRP | -0.399
18 | RRIRHRPPRLPRPRPRPAYNPRP | -1.04
19 | RRIRMRPPRLPRPRPRPALPPRP | 0.363
20 | RRIRHRPPRLPRPRPRPRDKPRP | -0.132
21 | RRIRFRPPRLPRPRPRPLYCPRP | -0.937
22 | RRIRRRPPRLPRPRPRPHWCPRP | 0.0137
23 | RRIRKRPPRLPRPRPRPMQEPRP | 0.0391

Row | Sequence | shrunken log2 fold change
24 | RRIRHRPPRLPRPRPRPSYEPRP | -0.503
25 | RRIRFRPPRLPRPRPRPCQKPRP | 0.033
26 | RRIRFRPPRLPRPRPRPMAQPRP | -0.337
27 | RRIRMRPPRLPRPRPRPSVKPRP | 0.185
28 | RRIRTRPPRLPRPRPRPCMAPRP | -0.172
29 | RRIRMRPPRLPRPRPRPKDHPRP | 0.458
30 | RRIRDRPPRLPRPRPRPPAQPRP | 0.296
31 | RRIRFRPPRLPRPRPRPPIHPRP | -0.255
32 | RRIRPRPPRLPRPRPRPHMFPRP | 0.00976
33 | RRIRSRPPRLPRPRPRPCQHPRP | -0.128
34 | RRIRVRPPRLPRPRPRPDEDPRP | 0.185
35 | RRIRQRPPRLPRPRPRPRQTPRP | 0.161
36 | RRIRQRPPRLPRPRPRPRVWPRP | 0.163
37 | RRIRTRPPRLPRPRPRPWMEPRP | -0.326
38 | RRIRMRPPRLPRPRPRPVSKPRP | 0.0965
39 | RRIRNRPPRLPRPRPRPITRPRP | -0.0765
40 | RRIRFRPPRLPRPRPRPWMGPRP | -0.592
41 | RRIRQRPPRLPRPRPRPHVEPRP | -0.00703
42 | RRIRHRPPRLPRPRPRPHCYPRP | 0.0262
43 | RRIRTRPPRLPRPRPRPNPEPRP | -0.101
44 | RRIRMRPPRLPRPRPRPQHFPRP | 0.00913
45 | RRIRERPPRLPRPRPRPIGTPRP | -0.976
46 | RRIRNRPPRLPRPRPRPSKRPRP | -0.0331

Row | Sequence | shrunken log2 fold change
47 | RRIRKRPPRLPRPRPRPNTKPRP | -0.391
48 | RRIRIRPPRLPRPRPRPDGNPRP | -0.0425
49 | RRIRWRPPRLPRPRPRPQQHPRP | -0.056
50 | RRIRSRPPRLPRPRPRPYMEPRP | 2.73
51 | RRIRARPPRLPRPRPRPTQWPRP | 0.457
52 | RRIRSRPPRLPRPRPRPFAYPRP | -0.348
53 | RRIRNRPPRLPRPRPRPDFTPRP | 0.0959
54 | RRIRERPPRLPRPRPRPLIRPRP | -0.0588
55 | RRIRARPPRLPRPRPRPYTFPRP | -0.444
56 | RRIRARPPRLPRPRPRPFRSPRP | -0.0968
57 | RRIRDRPPRLPRPRPRPFRRPRP | 0.0456
58 | RRIRMRPPRLPRPRPRPQGMPRP | 0.0363
59 | RRIRIRPPRLPRPRPRPVSHPRP | 0.113
60 | RRIRDRPPRLPRPRPRPAMVPRP | 0.282
61 | RRIRQRPPRLPRPRPRPDQSPRP | -0.222
62 | RRIRQRPPRLPRPRPRPQRQPRP | 0.0235
63 | RRIRHRPPRLPRPRPRPESPPRP | 0.0722
64 | RRIRNRPPRLPRPRPRPIVIPRP | -0.29
65 | RRIRWRPPRLPRPRPRPRDNPRP | 0.0559
66 | RRIRHRPPRLPRPRPRPMDTPRP | 0.03
67 | RRIRIRPPRLPRPRPRPIYCPRP | -0.0326
68 | RRIRERPPRLPRPRPRPSDMPRP | -0.0552
69 | RRIRSRPPRLPRPRPRPYISPRP | -0.0172

Row | Sequence | shrunken log2 fold change
70 | RRIRNRPPRLPRPRPRPHCYPRP | 0.0691
71 | RRIRKRPPRLPRPRPRPMHHPRP | -0.126
72 | RRIRCRPPRLPRPRPRPLYEPRP | -0.43
73 | RRIRYRPPRLPRPRPRPQGVPRP | -0.464
74 | RRIRLRPPRLPRPRPRPQKKPRP | -0.176
75 | RRIRRRPPRLPRPRPRPHPIPRP | 0.35
76 | RRIRSRPPRLPRPRPRPMNQPRP | -0.0276
77 | RRIRWRPPRLPRPRPRPFYDPRP | -0.21
78 | RRIRQRPPRLPRPRPRPWWFPRP | -0.0566
79 | RRIRWRPPRLPRPRPRPDKCPRP | -0.134
80 | RRIRTRPPRLPRPRPRPGTMPRP | -0.254
81 | RRIRWRPPRLPRPRPRPMGPPRP | 0.041
82 | RRIRWRPPRLPRPRPRPYYEPRP | -0.742
83 | RRIRDRPPRLPRPRPRPRIGPRP | -0.00724
84 | RRIRLRPPRLPRPRPRPKFPPRP | -0.26
85 | RRIRYRPPRLPRPRPRPKQVPRP | 0.234
86 | RRIRKRPPRLPRPRPRPVMQPRP | 0.041
87 | RRIRCRPPRLPRPRPRPHGTPRP | -0.0488
88 | RRIRHRPPRLPRPRPRPWSFPRP | 0.0231
89 | RRIRERPPRLPRPRPRPFPVPRP | -0.214
90 | RRIRERPPRLPRPRPRPPIKPRP | -0.414
91 | RRIRTRPPRLPRPRPRPCTTPRP | -0.0816
